143 substances from the supplement of paper PMC12042874 can be followed below.

± gives the uncertainty stated by the source.

This data set is described as follows: amyloid nucleation score (Sup35N fusion, yeast selection) (log enrichment); library NNK2; higher = more nucleation; inactive = no reads after selection. In short, it runs like this: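 Growth for 7 days at 30°C on medium lacking adenine and uracil followed a 24-hour induction with 100 μM copper sulfate of psi-negative yeast expressing peptides of 20 random codons fused to Sup35N. Input and output plasmid inserts were sequenced with Illumina, and sequences with under 100 input reads were excluded. Nucleation score is the DiMSum log enrichment of output over input reads, centred on the mode score of non-aggregating sequences.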
For the substance DHPYTRKFI, the amyloid nucleation score was -0.311 ± 0.79.
The result for DHRIWKAAREVVLVCHL reads 0.629 ± 0.4; that for DIDAIYTFRACGDMPSHFRR, -0.172 ± 0.35.
Next, DIIVYM: “inactive”; DILMLNRSVGDIREAISVNG: 0.48 ± 0.51.
Take DIMTYPLRSINRRFKGVGRR: the amyloid nucleation score was 4.481 ± 0.039.
DIPLSSAKAYI showed an amyloid nucleation score of 0.443 ± 0.8.
Take DIVRSYV: the amyloid nucleation score was -0.27 ± 0.45.
Next, DIWKTQ: 0.218 ± 0.8; DIWYLICLSQSSGLFLVGVM: -0.55 ± 0.79.
DKSCLISVMLICLL came in with an amyloid nucleation score of 5.21 ± 0.059.
The result for DKSIR reads 0.239 ± 0.33; that for DKSNGVTMVESITSGG, -0.303 ± 0.56.
The substance DLGDKFL showed an amyloid nucleation score of 1.67 ± 0.23.
For DLGHLTLISKFKFNESSAEH, the amyloid nucleation score was -0.221 ± 1.1.
Next, DLGMECTQVGRLDVVWELLI: 0.632 ± 0.31.
The result for DLHWA reads 0.595 ± 0.28; that for DLLVCC, 1.28 ± 0.26.
Next, DLSISSLGFQNIVLSHDNGY: -1.13 ± 1.1.
Turning to DMCDYQSVGF, the amyloid nucleation score entry was “inactive”.
The substance DMRFYMVLA yielded an amyloid nucleation score of 4.94 ± 0.051.
The result for DMSFQDIIMP reads -0.931 ± 0.54; that for DMYWCIYDRFMSLSWKT, -0.597 ± 0.53; that for DNKSCFTNVWNYNVTEHWGH, -1.4 ± 0.54.
The result for DNNTIWD reads 0.94 ± 0.23; that for DNVKVWSGFTRY, -0.148 ± 0.49; that for DPPSSFEFMCLRLWV, 3.35 ± 0.085.
For DQESRNSVFSGKGGRRDVSS, the amyloid nucleation score was -0.134 ± 0.37.
Next, DQSTSFFIFYNQTNWSMLFP: 6.12 ± 0.056; DRAGLATLNSLELGDDGFLG: -1 ± 0.78.
The result for DRLGTYSS reads 0.409 ± 0.54.
Next, DRNVTESMGYVWTASWGAY: 0.366 ± 0.41.
The substance DRQCK yielded an amyloid nucleation score of 0.445 ± 0.32.
On to DRSFVETREVACVVMYTSVF, for which the amyloid nucleation score was -0.395 ± 0.61.
Consider DRVFLFFKKRPGPWMMARLY, for which the amyloid nucleation score result was “inactive”.
As to DRVNGYIIGRLTAYTSVSKD, the amyloid nucleation score is -0.317 ± 1.1.
DRVQG returned an amyloid nucleation score of 1.2 ± 0.22.
DRWGFDFCQLLV: the amyloid nucleation score is 1.95 ± 0.12.
The result for DRWLVFPSNRPVFVMDRFNG reads -0.414 ± 0.64; that for DRYVSV, 0.455 ± 0.43.
The result for DSACFYENSM reads -0.48 ± 0.79; that for DSFASTQYCAVSSSVQLAWQ, 1.45 ± 0.27.
DSGFGSW: the amyloid nucleation score was -0.807 ± 0.74.
Substance DSGLMSFVCNVDPKCVCFVN showed an amyloid nucleation score of 7.968 ± 0.075.
For the substance DSGLSHSNQWVDFSEYPTRL, the amyloid nucleation score entry was “inactive”.
As to DSGNDLCDNYPVCWVKFCYC, the amyloid nucleation score was determined as 5.2 ± 0.063.
Next, DSIFFYTGMQTDYHAHMSPC: “inactive”; DSKWIM: -0.326 ± 0.46; DSRMRWL: 0.149 ± 0.27.
On to DSTVRPMRGGECNAGVAGKE, for which the amyloid nucleation score came to 0.794 ± 0.24.
Take DSWSAVYTNISELAIGGCHG: the amyloid nucleation score is -0.055 ± 1.1.
On to DTFINWIWRGYGKWMCSGRR, for which the amyloid nucleation score is -0.135 ± 0.39.
DTLCYNRMWFLPGLKMDLGG gave an amyloid nucleation score of 7.62 ± 0.054.
Consider DTWTYVAWFLYIIICSRQTE, for which the amyloid nucleation score is -0.623 ± 0.35.
The substance DVAYSYRHECIADKLLRVEH showed an amyloid nucleation score of 0.019 ± 0.55.
Regarding DVHNMGSPGVLAMLVTSDGK, the amyloid nucleation score amounted to 0.876 ± 0.74.
The result for DVHTVCASSKHHLRVVKAVT reads 0.494 ± 0.8; that for DVKDDKLFNCLDVVMWVGNL, -0.058 ± 0.15; that for DVKSYTITYSLSFHVMSVII, 2.72 ± 0.21.
The result for DVNISASNEVALIASDRLLC reads -0.149 ± 0.55.
Next, DVQWTGPRPFPFV: 0.679 ± 0.4.
The substance DVRVISNDNAWDDLRLYFDK came in with an amyloid nucleation score of 0.36 ± 0.3.
Regarding DVVCRMRATYCWALRVMGQR, the amyloid nucleation score came to 1.58 ± 0.29.
With DVYSSVRVNYT, the amyloid nucleation score is -0.386 ± 0.56.
The result for DVYTQASLGMS reads “inactive”; that for DWFGLCFMKRFKFGEYKACM, -1.04 ± 0.48.
For DWTDCYWMLRDTGGFSIS, the amyloid nucleation score was -1.35 ± 0.78.
For DYCSYTAL, the amyloid nucleation score was -0.081 ± 1.1.
The result for DYIFGYSTILFVMLCIHNFY reads -1.35 ± 0.78; that for DYLKLLAYNVLFR, “inactive”.
For the substance DYMFIDLASSNTNLRSWSHS, the amyloid nucleation score is -0.408 ± 0.37.
As for DYSRLSLGICEVDDCTLRMV, the amyloid nucleation score was -0.761 ± 0.39.
As to DYWFRGAESCTCGLE, the amyloid nucleation score worked out at 0.012 ± 0.63.
Next, DYYNRVISASVYSLGGCC: 2.82 ± 0.075; DYYYIPSSIVSTIFKEFSPL: -1.97 ± 0.78; EALSKLFFYSWERSFHNGEG: 2.11 ± 0.11.
Consider EARSGVNGRARSMFLIGRYS, for which the amyloid nucleation score was -0.262 ± 0.63.
ECCQILCGSYWYIKYLSYDC had an amyloid nucleation score of 1.8 ± 0.13.
Next, EDELSPF: 0.453 ± 0.18.
On to EDITI, for which the amyloid nucleation score was -1.67 ± 0.41.
Consider EEKEVDVEVGRETHMSARDN, for which the amyloid nucleation score was found to be 0.563 ± 0.15.
Consider EELAPSCAEDEILILSMLIN, for which the amyloid nucleation score is -0.592 ± 0.76.
Next, EELSIQRALLVCPKKEGFLE: 3.69 ± 0.082; EEVQAFI: -0.22 ± 0.48.
Next, EEWNRRANMGFLNYFETHGG: -1.14 ± 1; EFILHVTQIAAIMDLRLVHM: 4.01 ± 0.11; EFLLYRTSVP: -0.205 ± 0.76.
The result for EFNYHVQRSLFSR reads 0.285 ± 0.65.
EFSIHAGLM showed an amyloid nucleation score of 0.222 ± 0.46.
Turning to EFYFG, the amyloid nucleation score was 0.599 ± 0.8.
For the substance EGIVAMAERYYSSNIRAVTW, the amyloid nucleation score amounted to 0.296 ± 0.32.
The result for EGRVFTGEGRYECCSCFGLL reads -0.752 ± 0.64; that for EHRSVRDLKRMQCEIYSRGV, 0.191 ± 0.8.
In the case of EHVGVTTVPIPLGMGLTWWC, the amyloid nucleation score stood at 0.309 ± 0.16.
In the case of EIARLTNLDWTNISTFL, the amyloid nucleation score is -0.698 ± 1.1.
Consider EIHGMCTLYIFNSRPYIYPG, for which the amyloid nucleation score is 6.594 ± 0.035.
Take EILTNQYFCRLWVMGTFYID: the amyloid nucleation score was -1.19 ± 1.
For EITEDSMVLVRWSGARNFHM, the amyloid nucleation score amounted to 2.56 ± 0.15.
In the case of EKVNLSTSCRVA, the amyloid nucleation score was determined as 0.664 ± 0.34.
Next, ELAHQNENFRGRRFVAQ: -0.038 ± 1.1; ELDGYLVLFFTGLNP: -0.418 ± 0.63.
Next, ELGFGMMIAPSKGEKGDGML: 3.37 ± 0.12; ELGVTNLDVDRHIDY: -0.038 ± 1.1.
Next, ELGYCYSFGHSQFFKQSKHG: 3.03 ± 0.071; ELLSRETIKDHWMTIIKYFL: -0.143 ± 0.74.
With ELVRDGYTPFLFLILETVVM, the amyloid nucleation score was -0.202 ± 0.49.
The result for EMCGATRG reads 3.28 ± 0.085; that for EMIIL, -0.259 ± 0.32; that for EMSFSLTYSRSRHFRSGGTA, 6.32 ± 0.064.
The result for EMVRTTMSWPYMFS reads -0.47 ± 1.1.
Regarding ENERNML, the amyloid nucleation score is -0.11 ± 0.29.
Consider ENSANNLGMFERSSRYRLSG, for which the amyloid nucleation score amounted to 0.356 ± 0.34.
In the case of ENVFDCNRFY, the amyloid nucleation score result is “inactive”.
On to EPKFCGMDNHEL, for which the amyloid nucleation score came to 3.78 ± 0.14.
Next, EQKGSVTYCGYKMSDV: 4.97 ± 0.062; ERFHIVLHMVIDDRVSFGCV: 2.96 ± 0.12.
The result for ERSNFWPRVQTPCESVA reads 0.016 ± 1.1.
For the substance ERVDVI, the amyloid nucleation score was -0.364 ± 0.32.
The result for ESASTVTVCLRRVKVSHR reads 5.204 ± 0.045.
The result for ESDVSRDRMMALRNMYFCHR reads 0.192 ± 0.74; that for ESGVWCKAPFYMSVTLSIHS, -0.487 ± 0.56; that for ESIVDWSYCFLTTFMSPRWA, 0.193 ± 0.65.
Turning to ESMLSEFFWDHS, the amyloid nucleation score is 3.07 ± 0.072.
ESNKRTTCLFH displayed an amyloid nucleation score of 0.331 ± 0.32.
The result for ESRHSSLFHHPE reads 0.119 ± 0.65.
Next, ESTLDC: 0.343 ± 0.41; ESVRASPV: 0.093 ± 0.28; ETHFVTKDLASSLGKLAHPY: 8.848 ± 0.069.
Next, EVTSTY: 0.501 ± 0.46; EWILTELYHWFNFFYCRDGV: -1.2 ± 1.1; EWLTLTDIFT: -0.619 ± 1.
EWRGMLLVSTRLVKDIVR: the amyloid nucleation score is -0.553 ± 0.35.
Next, EWTLWSSGLRAES: 0.217 ± 0.3; EYFFYLLSSIMHIE: 2.45 ± 0.1.
Next, FAFICTR: “inactive”; FAFYRSFCWRVTWFSWVGGS: “inactive”; FAHERHTIYRQVSIMMWRSM: 0.426 ± 0.25.
Next, FALHGEFFYHKKRSQGFRAH: -1.36 ± 0.61; FALNLFCEDKCLYCSLVSS: 2.92 ± 0.066; FARSFPRFRTESFDCKECRG: “inactive”.
On to FATQGSHKAVLGRSVHHLCR, for which the amyloid nucleation score is -0.447 ± 0.61.
Next, FAVKGCNFGTGVFMRVE: 0.021 ± 0.34.
FAYSLHRLLWIRCMYSNGR: the amyloid nucleation score was determined as 1.45 ± 0.17.
